According to publication doi:10.1101/2022.09.27.509796 (bioRxiv, 2022):

Target: T1, ΔN100 y-mtRNAP (yeast mitochondrial RNA polymerase, RPO41) (Saccharomyces cerevisiae, UniProt P13433 101-1351)
T1 sequence (looked up): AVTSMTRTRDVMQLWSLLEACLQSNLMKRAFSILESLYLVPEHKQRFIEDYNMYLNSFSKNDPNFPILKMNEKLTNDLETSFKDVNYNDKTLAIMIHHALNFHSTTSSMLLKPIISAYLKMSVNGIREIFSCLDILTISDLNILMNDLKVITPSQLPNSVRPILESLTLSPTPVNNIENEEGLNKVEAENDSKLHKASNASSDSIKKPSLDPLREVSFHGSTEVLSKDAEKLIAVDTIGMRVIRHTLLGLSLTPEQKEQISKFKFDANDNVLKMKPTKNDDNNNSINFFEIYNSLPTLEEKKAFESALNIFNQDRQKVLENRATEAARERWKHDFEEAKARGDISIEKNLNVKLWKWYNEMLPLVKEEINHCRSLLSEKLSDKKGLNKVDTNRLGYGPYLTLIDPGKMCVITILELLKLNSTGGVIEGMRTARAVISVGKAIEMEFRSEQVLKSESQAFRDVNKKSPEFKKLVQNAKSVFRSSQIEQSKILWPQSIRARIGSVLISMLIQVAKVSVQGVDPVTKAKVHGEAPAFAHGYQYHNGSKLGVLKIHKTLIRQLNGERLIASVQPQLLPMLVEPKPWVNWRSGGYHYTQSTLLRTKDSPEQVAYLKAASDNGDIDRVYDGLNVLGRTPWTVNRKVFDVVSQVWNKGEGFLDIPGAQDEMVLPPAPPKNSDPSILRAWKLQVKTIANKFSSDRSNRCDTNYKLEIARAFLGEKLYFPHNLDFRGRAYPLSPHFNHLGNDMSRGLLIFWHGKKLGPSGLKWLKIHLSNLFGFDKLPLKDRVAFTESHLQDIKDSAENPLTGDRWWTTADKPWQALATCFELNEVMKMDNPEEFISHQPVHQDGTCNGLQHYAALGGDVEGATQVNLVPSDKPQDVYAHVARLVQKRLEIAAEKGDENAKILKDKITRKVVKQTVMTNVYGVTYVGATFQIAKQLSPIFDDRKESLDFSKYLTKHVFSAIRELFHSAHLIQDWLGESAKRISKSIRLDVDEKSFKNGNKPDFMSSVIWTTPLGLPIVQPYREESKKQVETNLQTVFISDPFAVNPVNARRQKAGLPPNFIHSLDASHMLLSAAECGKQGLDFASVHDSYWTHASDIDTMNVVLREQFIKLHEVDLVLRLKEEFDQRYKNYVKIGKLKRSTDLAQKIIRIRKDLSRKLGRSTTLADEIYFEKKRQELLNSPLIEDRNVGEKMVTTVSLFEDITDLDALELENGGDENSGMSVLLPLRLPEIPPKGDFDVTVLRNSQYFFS
Assay: cryo-EM structure

B1: MTF1 (yeast mitochondrial transcription factor) (natural protein, Saccharomyces cerevisiae)
chain: SVPIPGIKDISKLKFFYGFKYLWNPTVYNKIFDKLDLTKTYKHPEELKVLDLYPGVGIQSAIFYNKYCPRQYSLLEKRSSLYKFLNAKFEGSPLQILKRDPYDWSTYSNLIDEERIFVPEVQSSDHINDKFLTVANVTGEGSEGLIMQWLSCIGNKNWLYRFGKVKMLLWMPSTTARKLLARPGMHSRSKCSVVREAFTDTKLIAISDANELKGFDSQCIEEWDPILFSAAEIWPTKGKPIALVEMDPIDFDFDVDNWDYVTRHLMILKRTPLNTVMDSLGHGGQQYFNSRITDKDLLKKCPIDLTNDEFIYLTKLFMEWPFKPDILMDFVDMYQTEHSG
- binding result: binds
